The results in this text go back to the DeepSol protein solubility set.

A short description of the data set: soluble on expression in E. coli; label from the status in PepcDB or PDB records.
Turning to “MLRSQAKNVDLTSQADSRHQQKRKQAEQLDALKNPSEPAAKKQHSKGLTELRAHISGFKIDSAKRDPLGKSRTSRRDVENLPPQKSRYVDPCPHYDYDLEEAGNPDSISDYAQGIFDYYRHREVHFRVRKYLHKHPEVDVKTRAILIDWMVEIQETFELNHETLYNAVKLTDMYLCKTKNVDKNTIQKLACVAIFIAAKYDERSPPLVDDLIYLSGDRFSRDELLAMERELFATVGYDLGSPLSYRYLRRFGRVCRVDMKTLTMGRFILETSLMVYEYAMVSQSRLAAAAFVLAMRMLDKNNEYEWNPVLEKYSGFTGEEVMPLVEHMNHILHFSKDKWAQLTSVRQKYSHEVFFHVASIPMLPDTLKVVDSHTYAPVPMLSYP”, the “soluble on expression in E. coli” value is on record as “not soluble”.
For the sequence “MLRVGPLTIGTLDDWAPSTGSTVSWRPSAVAHTKASQAPISDVPVSYMQAQHIRGYCEQKAKGLDYSRLMVVSCQQPGQCDIRAANYVINAHLRRHDTYRSWFQYNGNGQIIRRTIQDPADIEFVPVHHGELTLPQIREIVQNTPDPLQWGCFRFGIVQGCDHFTFFASVDHVHVDAMIVGVTLMEFHLMYAALVGGHAPLELPPAGSYDDFCRRQHTFSSTLTVESPQVRAWTKFAEGTNGSFPDFPLPLGDPSKPSDADIVTVMMLDEEQTAQFESVCTAAGARFIGGVLACCGLAEHELTGTTTYYGLTPRDTRRTPADAMTQGWFTGLIPITVPIAGSAFGDAARAAQTSFDSGVKLAEVPYDRVVELSSTLTMPRPNFPVVNFLDAGAAPLSVLLTAELTGTNIGVYSDGRYSYQLSIYVIRVEQGTAVAVMFPDNPIARESVARYLATLKSVFQRVAESGQQQNVA”, the “soluble on expression in E. coli” value is “not soluble”.
Turning to “MLRVLVGAVLPAMLLAAPPPINKLALFPDKSAWCEAKNITQIVGHSGCEAKSIQNRACLGQCFSYSVPNTFPQSTESLVHCDSCMPAQSMWEIVTLECPGHEEVPRVDKLVEKILHCSCQACGKEPSHEGLSVYVQGEDGPGSQPGTHPHPHPHPHPGGQTPEPEDPPGAPHTEEEGAED”, the “soluble on expression in E. coli” value was “soluble”.
For “MLSAFFKTAHCALRNMPIQTDLVGKWNFVSSENFDEYLKEVGVGWAIRTIATKTKPALEFAVNGDEWTMNSNSTFKNYTLKWKLGTASDEKTADGRDVSSVFSIENDHLVQIETGKGGGKDSRIERYIENGKLVIVCTCNGVKCTRVYEKAA”, the “soluble on expression in E. coli” value was “not soluble”.
Regarding “MLSALRTAGAVGTRRLASTQAIASNSEAPKGIATTGTPFLNPSSKAEYALARLDDVLNLAQRGSIWPLTFGLACCAVEMMHFAAPRYDMDRYGVVFRASPRQADLIFVAGTVTNKMAPALRRIYDQMPEAKWVISMGSCANGGGYYHYAYSVLRGCDRVIPVDIYVPGCPPTAEALLYGVLQLQKKIKRKREAQLWYRR”, the “soluble on expression in E. coli” value is listed as “not soluble”.
With “MLSAWFSGKYSVLKDENGYVFLDRDGDRFRHILNYLRCGTVHIGEDIRLLGEILEEAEYFGLQSLAQQLKEALLQCRVKQEEKESSVCGRMNNEDNLFHPMFEPLDGFSSSQTSQGEPLLTLLPSSQEFRLDEDF”, the “soluble on expression in E. coli” value is “soluble”.
Consider “MLSERMLKALNDQLNRELYSAYLYFAMAAYFEDLGLEGFANWMKAQAEEEIGHALRFYNYIYDRNGRVELDEIPKPPKEWESPLKAFEAAYEHEKFISKSIYELAALAEEEKDYSTRAFLEWFINEQVEEEASVKKILDKLKFAKDSPQILFMLDKELSARAPKLPGLLMQGGE”, for which the “soluble on expression in E. coli” value is “soluble”.
As to “MLSFAPYRFSQVLEHQCTRNGSVLIRHTEEFTSKTCSRCGHIHYSLGGQKIFKCSNCGNHLPRDWNGALGNFLKALWDTTLEHHHHHH”, the “soluble on expression in E. coli” value is recorded as “not soluble”.
As for “MLSHMVLTRQDIGRAASYYEDGADDYYAKDGDASEWQGKGAEELGLSGEVDSKRFRELLAGNIGEGHRIMRSATRQDSKERIGLDLTFSAPKSVSLQALVAGDAEIIKAHDRAVARTLEQAEARAQARQKIQGKTRIETTGNLVIGKFRHETSRERDPQLHTHAVILNMTKRSDGQWRALKNDEIVKATRYLGAVYNAELAHELQKLGYQLRYGKDGNFDLAHIDRQQIEGFSKRTEQIAEWYAARGLDPNSVSLEQKQAAKVLSRAKKTSVDREALRAEWQATAKELGIDFS”, the “soluble on expression in E. coli” value is reported as “soluble”.
As for “MLSNQLHFAKPTARTPLVVLVHGLLGSGADWQPVLSHLARTQCAALTLDLPGHGTNPERHCDNFAEAVEMIEQTVQAHVTSEVPVILVGYSLGGRLIMHGLAQGAFSRLNLRGAIIEGGHFGLQENEEKAARWQHDQQWAQRFSQQPIEHVLSDWYQQAVFSSLNHEQRQTLIAQRSANLGSSVAHMLLATSLAKQPYLLPALQALKLPIHYVCGEQDSKFQQLAESSGLSYSQVAQAGHNVHHEQPQAFAKIVQAMIHSIID”, the “soluble on expression in E. coli” value is “soluble”.
For “MLSRRGKMKRIKVLRNGPYLVEGSVPLYEEVIVTDEEGHTREFVERRQFPLKERYVLCRCGESGNKPYCDGTHIRTGFDGTETASLEPYIERARVFRAGDLELTDVPELCDHSRFCLRAGGIRELLRKGDRESIQIAIEEAMICPSGRLVLWDRKTGKPYERDYEKSIVVIHDKQKRCEGPLWVRGGIPIESADGREYEVRNRVTLCRCGLSENKPFCDGSHWMTAEEKLEFKRKWGIELEHHHHHH”, the “soluble on expression in E. coli” value is recorded as “not soluble”.
For “MLSTTTIGFPRIGNQRQLKFAMESYFKGDSGEAELLAVAHKVQSDAWALQKAAGIAVIGLDGTLYDQVLDTITWLGAIPPRFKHLSGLQRYYAMARGGAALDMSKFFDTNYHYLVPELGPDVLGPATAAGAPLQPDFSGPLDKLARGQAVVGRERAVPILIGPVTFVSLSRGCELPLDQAVARLLPTYCALLQQLAAAGAPEVQLHEPVLATSEGAGMRAEFETAYAQMAQAAGSVPLHLVTYYDDLGAAYPWAVQLPVAAVTLDFLGPPGAAVPSQTLALLQQHGFPADKRLGAGVVDGRSVWKDDGTAVALLRALLDTGAVSSDRLVVTSSAPLQHLPYDLGLELEAPKTPEAEPHLPPALAARLGFAKQKVEEIVSVARLAASPAAAAAAAGHGAVVQLQRLQQGKGVEDHTADIPAEWFSRPKPYDVRREQQLQLPAFPTTTIGSFPQTAEVRRLRQQLKSGRLTQAEYEGLIAGHIAHAVGVQEALGIDVLVHGEAERTDMVEYFGMQLGGMLFTRAGWVQSYGSRCVRPPLVVDDITYRGPMTCWEYKVASAYTRKPVKGMLTGPVTILNWSFPRKDISRAAQAMQLGLALRQEVAALEAAGCTIIQVDDPALREGLPLKRERWASYLSWAVDAFRLCTGVAAAGTQVVTHLCYSDFQDILPAIDRMDADVLTIENSRSDNAMMAALAAAGYGRDIGPGVYDVHSPVVPSVEFIKSRIRSFVDSGILSGRYDRIWVNPDCGLKTRGWPETIAALRNMVEAAAQARAELQLAGGAAVAPVAGGVEAAGKGAALGAAAGTSRCVDCCH”, the “soluble on expression in E. coli” value was “not soluble”.
With “MLTFVSPVFGAPKKRKWFSKLSGKQLCCFRCVSCLQVEQPSRSHPNYWRNIAREVNKTLKEHSLEANNPINVTDEDSSVFVDTTTDEREEGGPTFIQQSSRVQLDSAEISHSNSMTTDSHSLYQNNSPNSTGMEEEPSDYSVQFSTSWNPNTSWLQFPDLVESADIRRKTQEISKHQKEDVFKYYIDSENNLRPFHDAISPMHIFSKESETQTVSEPSAWENWHQLSQKGNEDSSSLDESLDDEWSEIDRWRPVAVELEGYNPKLTEDTSEEVRIEKNKLSKRREAVAWQKWFSTQQYNLSSELWERRIGVTGKDCDKNTSIYKQWLADMEQGLEP”, the “soluble on expression in E. coli” value is reported as “not soluble”.
Turning to “MLTISNQVQLADWEIELTAIRAQGAGGQNVNKVSSAIHLRFDISRSTLPAFYKERLLKMRDHRITKEGIIIIKAQQFRTQEKNREDALDRLKQLIQSATETQKARKETKPTRSSQHKRMDKKSQRGQTKSMRKKVDYLEHHHHHH”, the “soluble on expression in E. coli” value was “soluble”.
In the case of “MLTLTAGKKAAMDRLSTQEGIISALAIDQRGALKKMIKALDVEPTDAQIETFKELVSKELTPYASAILLDPEYGLPAAKARDTEAGLLLAYEKTGYDATTPGRLPDLLADWSVLRLKEEGADAIKFLLYYDVDEDPEINHQKHVFIERLGSECAEEDLPFYLELVSYDAQIADATSLEYAKVKPHKVNEMMKEFSKPQYKVDVLKVEVPVNMNFVEGFAPAETAYTKEEAANYFLEQSQATDLPFIFLSAGVSTELFQETLRFAKEAGSTFNGVLCGRATWKNGVKPFVEAGETAACDWLKTEGRENIESLNEVIAATASSWHAKVQVNEG”, the “soluble on expression in E. coli” value is “not soluble”.
In the case of “MLTNCASKTLAAVRANIRAIATSSARASDNLFVHRDTPEDNPNIPFEFTAENKKRVEAILSIYPEGHKRGAMIPLLDLAQRQYGWLPISAMHKVAEILQLPNMRVYEVATFYTMFMRKPTGKYHIQVCTTTPCWLRGSDDILETCKKQLGIGVGDTTKDRKFTISEVECLGACVNAPMVAINDDYYEDLTSKDMQDILNDLKADKISPPGPRNGRFASEPKGEPTSLSEEPKGPGFGLQAGL” it was “not soluble”.
Turning to “MLTVKQIEAAKPKEKPYRLLDGNGLYLYVPVSGKKVWQLRYKIDGKEKILTVGKYPLMTLQEARDKAWTARKDISVGIDPVKAKKASSNNNSFSAIYKEWYEHKKQVWSVGYATELAKMFDDDILPIIGGLEIQDIEPMQLLEVIRRFEDRGAMERANKARRRCGEVFRYAIVTGRAKYNPAPDLADAMKGYRKKNFPFLPADQIPAFNKALATFSGSIVSLIATKVLRYTALRTKELRSMLWKNVDFENRIITIDASVMKGRKIHVVPMSDQVVELLTTLSSITKPVSEFVFAGRNDKKKPICENAVLLVIKQIGYEGLESGHGFRHEFSTIMNEHEWPADAIEVQLAHANGGSVRGIYNHAQYLDKRREMMQWWADWLDEKVE”, the “soluble on expression in E. coli” value was “soluble”.
The entry for “MLVNGALSTTGSFGQTVKYLQPHYNLVLFDLPFSGQSRAHNPDEMIVSKEDEVQILLQLIDLYQVNYLLSVSWGGVSALLALAQCPASVEKAIISSFSPVLNEPMLDYIDKAQVYLAAREKRKIGSLLNDTVGKHLPRLFKLYNYKHLIGLAEHEYGQIDFHISQIRTLSASNYVERFSSIKIPVLFINGEKDEYTTVEDARMFSNYIAKSSFNVVPDTGHFLDLESKAAWHHSQKTALSFLGT” is “not soluble”; for “MLWQQKSFTEQTEQGTLYIVPTPIGNLEDMTFRAVRTLQEADVIAAEDTRQTKKLLAHFGIHTPLVSYHEHNKYASGRQLVEWLKEGKTVALVSDAGMPGISDPGYELIAAALAERCRVVPLPGANAALTALVASGLPTDRFLFVGFLKRAKKEKKEQLLSLKTAAETLIFYEAPHRLKETLALMYDIFGNRRIALGRELTKRFEEFIRGDLSDAVAWAEEHDIRGEFCLIVEGARDGNKQEQEGEEWWQPLSLVEHVDYYIREHSLSVKEAVKQAASDRNMSKRDVYRQYHQQQEEEKKEFL” it is “not soluble”; for “MMDCRLGCGACCIAPSISSPIPGMPNGKPAGVRCVQLNEDNLCQLFGRPERPKVCHDFKACPVVCGKTNQQALANLTELERLTLEHHHHHH” it is “not soluble”.
Consider “MMHGGFAMIIDQYWGKYFGDSADSQRLAQYLAGKNREVLTTSEIFQDFQLAQLSGNYTQASLDGAGWHFDSAFQFVIDLAVLVLESKKVGRFSIARIGGPEDRFMRIDAATDELLPITMALKHYALAPEDYLFSHGIDVDDWYELGNLCEEIRAQLEA”, for which the “soluble on expression in E. coli” value is “not soluble”.
